Data reported in patent US20210338833A1 (MIT, published 2021).

B1: FMC63 scFv (scFv)
scFv: DIQMTQTTSSLSASLGDRVTISCRASQDISKYLNWYQQKPDGTVKLLIYHTSRLHSGVPSRFSGSGSGTDYSLTISNLEQEDIATYFCQQGNTLPYTFGGGTKLEITGGGGSGGGGSGGGGSEVKLQESGPGLVAPSQSLSVTCTVSGVSLPDYGVSWIRQPPRKGLEWLGVIWGSETTYYNSALKSRLTIIKDNSKSQVFLKMNSLQTDDTAIYYCAKHYYYGGSYAMDYWGQGTSVTVSS
modifications: biotinylated
notes: Whole scFv entry (VL-(G4S)3-VH); also called FMC63-scFv monomer; biotinylated FMC63 scFv
B2: anti-mCD19 (clone 1D3) IgG (antibody, V domains shown)
VH: EVQLQQSGAELVRPGTSVKLSCKVSGDTITFYYMHFVKQRPGQGLEWIGRIDPEDESTKYSEKFKNKATLTADTSSNTAYLKLSSLTSEDTATYFCIYGGYYFDYWGQGVMVTVSS
VL: DIQMTQSPASLSTSLGETVTIQCQASEDIYSGLAWYQQKPGKSPQLLIYGASDLQDGVPSRFSGSGSGTQYSLKITSMQTEDEGVYFCQQGLTYPRTFGGGTKLELK
notes: Anti-mouse CD19 IgG; biotinylated for sorting; also called 1D3 antibody; anti-mCD19 IgG
B3: 1D3 Mimotope Multimer H1 + C11 SKLKGKSGPEFHWFINVPPF (peptide)
peptide: SKLKGKSGPEFHWFINVPPF
notes: Chemically synthesized 20 amino acid fusion of two mimotopes; also called fusion mimotope
B4: 1D3 Mimotope Multimer H1 + E2 SKLKGKSGPEIRVLMSRVFA (peptide)
peptide: SKLKGKSGPEIRVLMSRVFA
notes: as for B3
B5: FMC63 Mimotope Mutant RLCPWSAACREL (peptide)
peptide: RLCPWSAACREL
notes: also called G9 with two alanines inserted between the cysteines
B6: FMC63 Mimotope Mutant RLCPWSACREL (peptide)
peptide: RLCPWSACREL
notes: also called G9 with one alanine inserted between the cysteines

How the values were obtained:
[1] = molecular target: T1, FMC63 mimotope K-A5 PLSRICPWNCKELYWLPQR; test: flow cytometry of yeast clones titrated with biotinylated FMC63 scFv and streptavidin-PE, MFI (geometric mean); no unit on the concentration axis
T1 peptide: PLSRICPWNCKELYWLPQR

[2] = molecular target: T2, FMC63 mimotope K-A3 RICPWNCKELPTPYMMFDM; test: as above
T2 peptide: RICPWNCKELPTPYMMFDM

[3] = molecular target: T3, FMC63 mimotope K-A11 RICPWNCKELYWLPDE; test: as above
T3 peptide: RICPWNCKELYWLPDE

[4] = molecular target: T4, FMC63 mimotope K-B5 PPPRICPWNCKELPLDWPW; test: as above
T4 peptide: PPPRICPWNCKELPLDWPW

[5] = molecular target: T5, FMC63 mimotope K-A10 AKRRERDYVGRICPWNCKELHPDTRHRIPV; test: as above
T5 peptide: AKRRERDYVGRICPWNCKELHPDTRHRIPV

[6] = molecular target: T6, FMC63 mimotope K-F5 QFQRICPWNCKELYWLPDQ; test: as above
T6 peptide: QFQRICPWNCKELYWLPDQ

[7] = molecular target: T7, FMC63 mimotope K-C2 RICPWNCKELPSPPRIFGNR; test: as above
T7 peptide: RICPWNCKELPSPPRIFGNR

[8] = molecular target: T8, FMC63 mimotope K-A1 PRKHSGRICPWNCKELDNPPFIFGNR (not fully specified); test: as above
T8 peptide: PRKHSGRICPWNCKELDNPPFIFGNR

[9] = molecular target: T9, FMC63 mimotope K-D11 AGTRICPWNCKELYWLPDE; test: as above
T9 peptide: AGTRICPWNCKELYWLPDE

[10] = molecular target: T10, FMC63 Mimotope (G9) RLCPWSCREL; test: flow cytometry of yeast clones titrated with biotinylated FMC63 scFv monomer, MFI (geometric mean); axis without unit, nM by the legend paragraph 211
T10 construct: Parent of the alanine scan
T10 peptide: RLCPWSCREL

[11] = molecular target: T11, FMC63 Mimotope (H1) RVCPWSCMPI; test: as above
T11 construct: Not the 1D3 mimotope that is also called H1
T11 peptide: RVCPWSCMPI

[12] = molecular target: T12, FMC63 Mimotope (C5) RMCPWSCYEL; test: as above
T12 peptide: RMCPWSCYEL

[13] = molecular target: T13, FMC63 Mimotope (A12) RRCPWSCKKQ; test: as above
T13 peptide: RRCPWSCKKQ

[14] = molecular target: T14, FMC63 Mimotope (G11) RLCPWNCREL; test: as above
T14 peptide: RLCPWNCREL

[15] = molecular target: T15, FMC63 Mimotope (C7) RLCPWACQEQ; test: as above
T15 peptide: RLCPWACQEQ

[16] = molecular target: T16, FMC63 Mimotope (E6) RLCPWSCVPI; test: as above
T16 peptide: RLCPWSCVPI

[17] = molecular target: T17, FMC63 Mimotope (H8) RICPWACVEL; test: as above
T17 peptide: RICPWACVEL

[18] = molecular target: T18, FMC63 Mimotope (F8) RLCPWDCREL; test: as above
T18 peptide: RLCPWDCREL

[19] = molecular target: T19, FMC63 Mimotope (H11) RICPWSCREL; test: as above
T19 peptide: RICPWSCREL

[20] = molecular target: T20, FMC63 Mimotope (F12) RICPWNCKEL; test: as above
T20 construct: also called F12 mimotope
T20 peptide: RICPWNCKEL

[21] = molecular target: T21, 1D3 Mimotope (H1) SKLKGKSGPE; test: ELISA, OD(450nm) against the concentration of 1D3 IgG; label under the circle curve (H1)
T21 peptide: SKLKGKSGPE

[22] = molecular target: B3; test: ELISA, OD(450nm) against the concentration of 1D3 IgG; label beside the square curve (H1 + C11)
Protocol: (§1) Specifically, a library was generated using nested PCR and the primers in Table 1. […] For each round of enrichment, the top 0.5-1% of yeast were sorted. Following enrichment, isolated clones were subjected to Sanger sequencing. […] To further characterize the mimotope affinity, absolute binding affinity was measured by ELISA. Specifically, three mimotopes were selected for screening (Table 8). Of the selected sequences, two fusion mimotopes were chemically synthesized. Specifically, two mimotopes were fused to form a 20 amino acid peptide (Table 9).

[23] = molecular target: B4; test: ELISA, OD(450nm) against the concentration of 1D3 IgG; label beside the triangle curve (H1 + E2)
Protocol: as §1

[24] = molecular target: B2; test: yeast display selection with 1D3 IgG
Protocol: as §1

[25] = molecular target: B2; test: ELISA with anti-mCD19 IgG (1D3)
Protocol: as §1

FMC63 IgG = molecular target: T22, FMC63 IgG; test: flow cytometry of yeast-displayed mutant
T22 construct: Murine monoclonal antibody to human CD19; also called FMC63 IgG antibody; biotinylated FMC63 IgG
Protocol: Specifically, a representative mimotope, […] […] To generate mutations, two complementary oligos with the codon replaced at the desired site were denatured at 95° C. and annealed by slow cooling to 25° C. (decreasing by 0.5° C./second). The annealed oligos were treated with T4 PNK (T4 Polynucleotide Kinase) to add a terminal phosphate, and then ligated into digested pCT-CON2 vector. Positive clones having the correct oligo inserted were tested and transformed into competent EBY100 yeast cells.

## B1
[1]
  binding result: binds
[2]
  binding result: binds
[3]
  binding result: binds
[4]
  binding result: binds
[5]
  binding result: binds
[6]
  binding result: binds
[7]
  binding result: binds
[8]
  binding result: binds
[9]
  binding result: binds
[10]
  binding result: binds
[11]
  binding result: binds
[12]
  binding result: binds
[13]
  binding result: binds
[14]
  binding result: binds
[15]
  binding result: binds
[16]
  binding result: binds
[17]
  binding result: binds
[18]
  binding result: binds
[19]
  binding result: binds
[20]
  binding result: binds

## B2
[21]
  Kd: 190 nM
[22]
  Kd: 102 nM
[23]
  Kd: 6.7 nM

## FHWFINVPPF [1D3 Mimotope (C11) FHWFINVPPF]
[24]
  binding result: binds

## IRVLMSRVFA [1D3 Mimotope (E2) IRVLMSRVFA]
[24]
  binding result: binds

## B3
[25]
  binding result: binds

## B4
[25]
  binding result: binds

## B5
FMC63 IgG
  binding result: no binding (tested: 5 µM FMC63 IgG)

## B6
FMC63 IgG
  binding result: no binding (tested: 5 µM FMC63 IgG)
